Reference: patent US9050248B2, “Methods of delivering stable topical drug compositions” (Transdermal Biotechnology, Inc., priority 2002, dated 2015)

How the values were obtained:
[1] = Skin penetration on topical application of somatotropin composition; conditions: composition topically applied
Procedure: A drug delivery composition formulated with somatotropin was formulated in one trial with 85% phosphatidylcholine to which lipoic acid and ascorbyl palmitate were added.

[2] = Storage stability of insulin by RP-HPLC and HPCE (Example 1); assay type: physicochemical; conditions: stored at room temperature
Procedure: This mixture was then divided in half, half of which was stored at 4° C., and the other half stored at room temperature.

[3] = Storage stability of insulin by RP-HPLC and HPCE (Example 2); assay type: physicochemical

| Substance | skin penetration [1] | time at which denaturing started [2] [days] | time stable (RP-HPLC and HPCE) ([3]; stored at 4° C.) [weeks] | time at which denaturing started ([3]; stored at room temperature) [week] |
| --- | --- | --- | --- | --- |
| Somatotropin: pituitary growth hormone, formulated with 85% phosphatidylcholine, lipoic acid and ascorbyl palmitate | appeared to penetrate the skin well |  |  |  |
| insulin standards: recombinant human insulin in 0.01 N HCl, 1 mg/ml (Example 1) or 5 mg/ml (Example 2) |  | ≤ 7 | 22 | ≤ 1 |
